Earlier results in paper PMC3090270 (Structure (London, England : 1993), 2010).

B1: D-AKAP1: dual-specific AKAP (protein, UniProt Q92667 30-903, looked up)
A-kinase anchor protein 1, …: KGHVSSHDEQQVEAGAVQLRADPAIKEPLPVEDVCPKVVSTPPSVTEPPEKELSTVSKLPAEPPALLQTHPPCRRSESSGILPNTTDMRLRPGTRRDDSTKLELALTGGEAKSIPLECPLSSPKGVLFSSKSAEVCKQDSPFSRVPRKVQPGYPVVPAEKRSSGERARETGGAEGTGDAVLGEKVLEEALLSREHVLELENSKGPSLASLEGEEDKGKSSSSQVVGPVQEEEYVAEKLPSRFIESAHTELAKDDAAPAPPVADAKAQDRGVEGELGNEESLDRNEEGLDRNEEGLDRNEESLDRNEEGLDRNEEIKRAAFQIISQVISEATEQVLATTVGKVAGRVCQASQLQGQKEESCVPVHQKTVLGPDTAEPATAEAAVAPPDAGLPLPGLPAEGSPPPKTYVSCLKSLLSSPTKDSKPNISAHHISLASCLALTTPSEELPDRAGILVEDATCVTCMSDSSQSVPLVASPGHCSDSFSTSGLEDSCTETSSSPRDKAITPPLPESTVPFSNGVLKGELSDLGAEDGWTMDAEADHSGGSDRNSMDSVDSCCSLKKTESFQNAQAGSNPKKVDLIIWEIEVPKHLVGRLIGKQGRYVSFLKQTSGAKIYISTLPYTQSVQICHIEGSQHHVDKALNLIGKKFKELNLTNIYAPPLPSLALPSLPMTSWLMLPDGITVEVIVVNQVNAGHLFVQQHTHPTFHALRSLDQQMYLCYSQPGIPTLPTPVEITVICAAPGADGAWWRAQVVASYEETNEVEIRYVDYGGYKRVKVDVLRQIRSDFVTLPFQGAEVLLDSVMPLSDDDQFSPEADAAMSEMTGNTALLAQVTSYSPTGLPLIQLWSVVGDEVVLINRSLVERGLAQWVDSYYTSL
B2: Pap7: AKAP shown to bind RI subunits (protein, UniProt Q9H3P7 1-528, looked up)
Golgi resident protein GCP60: MAAVLNAERLEVSVDGLTLSPDPEERPGAEGAPLLPPPLPPPSPPGSGRGPGASGEQPEPGEAAAGGAAEEARRLEQRWGFGLEELYGLALRFFKEKDGKAFHPTYEEKLKLVALHKQVLMGPYNPDTCPEVGFFDVLGNDRRREWAALGNMSKEDAMVEFVKLLNRCCHLFSTYVASHKIEKEEQEKKRKEEEERRRREEEERERLQKEEEKRRREEEERLRREEEERRRIEEERLRLEQQKQQIMAALNSQTAVQFQQYAAQQYPGNYEQQQILIRQLQEQHYQQYMQQLYQVQLAQQQAALQKQQEVVVAGSSLPTSSKVNATVPSNMMSVNGQAKTHTDSSEKELEPEAAEEALENGPKESLPVIAAPSMWTRPQIKDFKEKIQQDADSVITVGRGEVVTVRVPTHEEGSYLFWEFATDNYDIGFGVYFEWTDSPNTAVSVHVSESSDDDEEEEENIGCEEKAKKNANKPLLDEIVPVYRRDCHEEVYAGSHQYPGRGVYLLKFDNSYSLWRSKSVYYRVYYTR
B3: Merlin: AKAP shown to bind RI subunits (protein, UniProt P35240 1-595, looked up)
Merlin: MAGAIASRMSFSSLKRKQPKTFTVRIVTMDAEMEFNCEMKWKGKDLFDLVCRTLGLRETWFFGLQYTIKDTVAWLKMDKKVLDHDVSKEEPVTFHFLAKFYPENAEEELVQEITQHLFFLQVKKQILDEKIYCPPEASVLLASYAVQAKYGDYDPSVHKRGFLAQEELLPKRVINLYQMTPEMWEERITAWYAEHRGRARDEAEMEYLKIAQDLEMYGVNYFAIRNKKGTELLLGVDALGLHIYDPENRLTPKISFPWNEIRNISYSDKEFTIKPLDKKIDVFKFNSSKLRVNKLILQLCIGNHDLFMRRRKADSLEVQQMKAQAREEKARKQMERQRLAREKQMREEAERTRDELERRLLQMKEEATMANEALMRSEETADLLAEKAQITEEEAKLLAQKAAEAEQEMQRIKATAIRTEEEKRLMEQKVLEAEVLALKMAEESERRAKEADQLKQDLQEAREAERRAKQKLLEIATKPTYPPMNPIPAPLPPDIPSFNLIGDSLSFDFKDTDMKRLSMEIEKEKVEYMEKSKHLQEQLNELKTEIEALKLKERETALDILHNENSDRGGSSKHNTIKKLTLQSAKSRVAFFEEL

Tested on: RI subunits
Conditions: ref Huang et al., 1997b (D-AKAP1), 1997a (D-AKAP2), Reinton et al., 2000 (AKAP220), Gronholm et al., 2003 (Merlin), Li et al., 2001 (Pap7)

Molecule | binding to RI subunits (dual-specific)
B1 | bind RI subunits
B2 | bind RI subunits
B3 | bind RI subunits
